The record followed here is paper PMC8542614 (Nature, 2021).

The target of test [1] is T1, HCV E2 ectodomain (eE2), full length, residues 384-656, genotype J6 (HCV genotype J6, N-linked glycans (fully glycosylated)). Put plainly: ITC. (In general: ITC needs no label: the signal is the heat of the interaction.)
The target in test [2] is T1, HCV E2 ectodomain (eE2), full length, …. In words: ITC. The source holds these as a separate data set.

Read-outs that look alike come from different tables or passages of the source.

B1: tamarin CD81 large extracellular loop (tCD81-LEL), residues 112-202, with plasmid-encoded N-terminal residues (domain or fragment)
chain: GFVNKDQIAKDVKQFYDQALQQAVVDDDANNAKAVVKTFHETLNCCGSSTLSALTTSMLKNNLCPSGSSIISNLFKEDCHQKIDELFSGKL
What is called Kd is the constant that tells how readily two partners part at equilibrium. For orientation: stoichiometry N means the number of molecules, sites or subunits per partner or assembly. Take B1: in test [1], binding was put at a Kd of 175 nM, the dH is -8.52 kcal/mol and the “stoichiometry N” value was determined as 0.67. Moreover, in test [2], the Kd was 37 nM, the dH was -12.3 kcal/mol and the “stoichiometry N” value was 0.57.
